Data from paper PMC3572039.

Target: T1, MBP-Δ116 (truncated XydR response regulator) del1-116 (Clostridium cellulolyticum H10 (ATCC 35319/DSM 5812)) (UniProt B8I0K9)
T1 sequence: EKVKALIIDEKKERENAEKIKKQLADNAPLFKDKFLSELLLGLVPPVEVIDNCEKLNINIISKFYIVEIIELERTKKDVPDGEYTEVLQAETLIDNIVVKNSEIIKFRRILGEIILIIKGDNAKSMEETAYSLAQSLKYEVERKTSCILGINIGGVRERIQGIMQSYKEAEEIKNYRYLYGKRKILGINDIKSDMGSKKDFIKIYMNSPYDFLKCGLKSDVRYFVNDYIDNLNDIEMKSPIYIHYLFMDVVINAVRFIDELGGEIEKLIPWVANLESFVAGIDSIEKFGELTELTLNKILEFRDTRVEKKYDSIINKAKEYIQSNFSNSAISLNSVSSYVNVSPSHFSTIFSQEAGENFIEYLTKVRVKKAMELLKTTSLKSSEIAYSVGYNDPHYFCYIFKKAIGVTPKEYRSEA
Assay: EMSA
Settings: 10 mM Tris pH 7.5, 150 mM KCl, 1 mM DTT, 30 ng/uL salmon sperm DNA, 0.1 ug/uL BSA, 0.05% NP-40, 2.5% glycerol, 20 C, 20 min; 20 fmol probe; 5% native PAGE

Sequence	binding
CCTTCTTAATCAGTTTCTAATTGCCAAAGAATAAGAGTAAAATGATTAGTAAATCTATATTCATTATAGAATGTAAACTGTTTCCAGCTCAATATAAATCCTTTTGACTTTTGTATATTAATTTTGTAAAATATCATTTTCAGTGTATTGGAGCAACATAAAAAAAGCAGCTGTAGAAAATCCAGCTGCTTTATACTTGCTATTTGTACAATTTTAGAATTACTTGTTAATACCTTATTCCGCAGC (double strand) [R6 (upstream Ccel_1656)]	binds
GTATATAAGGTATTGACTTTCTTTGGCAGATGTAAGAATAGGAGTAAAATGAAAAGAACGATTAGTACATATTAACTATGTTAAAAATATTATAGAATGTAAATGGTTTCCATTTCAATATAAATCTTTTTGGTATTGGTATAAATTTTTGAATTCATTTTATCATATTTTGAAAAATTAGTAAATTATTTATTTTATTTTACACTTTTGTATATATTTTTTTAAATTTGTTAAGATATATTTTGCTATGCTTCACTCCTATACTCCTTTGG (double strand) [R3 (upstream Ccel_1229)]	binds
